From patent publication US20240117043A1 (SHANGHAI JUNSHI BIOSCIENCES, published 2024)

B1: bispecific antibody JS-1 (IgG4) (bispecific antibody)
heavy: QVQLVQSGAEVKKPGASVKVSCKTSGYAFTEYTMHWVRQAPGKGLEWMGGINPNTGGTTYNQKFQGRVTLTVDKSSSTAYMELSSLRSEDTVVYYCAKLLRLMYYFDYWGQGTLVTVSSASTKGPSVFPLAPCSRSTSESTAALGCLVKDYFPEPVTVSWNSGALTSGVHTFPAVLQSSGLYSLSSVVTVPSSSLGTKTYTCNVDHKPSNTKVDKRVESKYGPPCPPCPAPEFLGGPSVFLFPPKPKDTLMISRTPEVTCVVVDVSQEDPEVQFNWYVDGVEVHNAKTKPREEQFNSTYRVVSVLTVLHQDWLNGKEYKCKVSNKGLPSSIEKTISKAKGQPREPQVYTLPPCQEEMTKNQVSLWCLVKGFYPSDIAVEWESNGQPENNYKTTPPVLDSDGSFFLYSRLTVDKSRWQEGNVFSCSVMHEALHNHYTQKSLSLSLGK
light: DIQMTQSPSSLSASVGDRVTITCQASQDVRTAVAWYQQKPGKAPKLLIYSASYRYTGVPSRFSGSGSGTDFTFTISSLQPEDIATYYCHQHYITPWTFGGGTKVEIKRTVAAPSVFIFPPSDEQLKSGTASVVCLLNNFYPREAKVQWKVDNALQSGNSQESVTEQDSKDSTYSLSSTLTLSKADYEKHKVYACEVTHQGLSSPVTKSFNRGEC
chain: DIVMTQSPDSLAVSLGERATINCKASQSVSNDVAWYQQKPGQPPKLLIYYVSHRFTGVPDRFSGSGSGTDFTLTISSLQAEDVAVYFCHQAYRSPWTFGCGTKLEIKGGGGSGGGGSGGGGSGGGGSEVQLVESGGGLVKPGGSLRLSCAASGFTFSSYHMSWVRQAPGKCLELVSAINSNGINTYYLDTVKGRFTISRDNAKNSLYLQMNSLRAEDTAVYYCARHEDYYGFAMDYWGQGTLVTVSSGGGGSGGGGSESKYGPPCPPCPAPEFLGGPSVFLFPPKPKDTLMISRTPEVTCVVVDVSQEDPEVQFNWYVDGVEVHNAKTKPREEQFNSTYRVVSVLTVLHQDWLNGKEYKCKVSNKGLPSSIEKTISKAKGQPREPQVCTLPPSQEEMTKNQVSLSCAVKGFYPSDIAVEWESNGQPENNYKTTPPVLDSDGSFFLVSRLTVDKSRWQEGNVFSCSVMHEALHNRFTQKSLSLSLGK
notes: Three-chain knob-into-hole format: anti-TIGIT Fab arm and anti-CD112R scFv arm, IgG4 Fc
B2: bispecific antibody JS-3 (IgG4) (bispecific antibody)
chain 1: not shown
chain 2: DIVMTQSPDSLAVSLGERATINCKASQSVSNDVAWYQQKPGQPPKLLIYYVSHRFTGVPDRFSGSGSGTDFTLTISSLQAEDVAVYFCHQAYRSPWTFGQGTKLEIKRTVAAPSVFIFPPSDEQLKSGTASVVCLLNNFYPREAKVQWKVDNALQSGNSQESVTEQDSKDSTYSLSSTLTLSKADYEKHKVYACEVTHQGLSSPVTKSFNRGECSGGGSGGGSEGGGSEGGGSEGGGSEGGGSGGGSGEVQLVESGGGLVKPGGSLRLSCAASGFTFSSYHMSWVRQAPGKGLELVSAINSNGINTYYLDTVKGRFTISRDNAKNSLYLQMNSLRAEDTAVYYCARHEDYYGFAMDYWGQGTLVTVSSASTKGPSVFPLAPCSRSTSESTAALGCLVKDYFPEPVTVSWNSGALTSGVHTFPAVLQSSGLYSLSSVVTVPSSSLGTKTYTCNVDHKPSNTKVDKRVESKYGPPCPPCPAPEFLGGPSVFLFPPKPKDTLMISRTPEVTCVVVDVSQEDPEVQFNWYVDGVEVHNAKTKPREEQFNSTYRVVSVLTVLHQDWLNGKEYKCKVSNKGLPSSIEKTISKAKGQPREPQVCTLPPSQEEMTKNQVSLSCAVKGFYPSDIAVEWESNGQPENNYKTTPPVLDSDGSFFLVSRLTVDKSRWQEGNVFSCSVMHEALHNRFTQKSLSLSLGK
notes: Two-chain scFab/scFab knob-into-hole format, IgG4 Fc

Assays:
[1] = target: T1, recombinant human TIGIT (His Tag) (human, UniProt Q495A1 22-141); test: ELISA, relative binding activity, sample kept at 40 C for 0 weeks
T1 construct: Coated antigen of the ELISA; not shown: His tag
T1 sequence (looked up): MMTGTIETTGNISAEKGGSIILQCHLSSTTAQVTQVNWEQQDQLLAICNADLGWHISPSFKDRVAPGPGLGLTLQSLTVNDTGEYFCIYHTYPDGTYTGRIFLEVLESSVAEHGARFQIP
Protocol: (§1) The antibody samples were exchanged into a pH 5.5 buffer system (20 mM histidine-histidine hydrochloride buffer, 230 mM trehalose) with the concentration of the samples controlled at about 5 mg/mL, and the buffer was aliquoted into vials at 500 μL/vial. The vials were placed in a 40° C. incubator to test stability at 0 W, 2 W and 4 W. Samples were sent for analysis according to Table 2. Stability was assessed by the following parameters: (a) the content of antibody monomers, aggregates or fragments determined by SEC-HPLC (size exclusion chromatography); (b) the molecular weight of the antibody determined by CE-SDS (sodium dodecyl sulfate capillary electrophoresis); and (c) the bioactivity of the antibody determined by an ELISA or reporter gene assay.

[2] = target: T2, recombinant human HX1 hCD112R Fc (human, UniProt Q6DKI7 41-171, limits assumed); test: as above
T2 construct: Coated antigen of the ELISA (Suzhou Junmeng); also called human CD112R; not shown: Fc part
T2 sequence (looked up): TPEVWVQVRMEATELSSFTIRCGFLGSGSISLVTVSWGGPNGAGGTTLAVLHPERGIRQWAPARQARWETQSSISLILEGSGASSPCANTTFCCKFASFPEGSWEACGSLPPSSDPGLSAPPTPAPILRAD
Protocol: as §1

[3] = target: T1, recombinant human TIGIT (His Tag); test: ELISA, plate coated with recombinant human TIGIT (His Tag), detection with HRP anti-human IgG4 Fc; unit taken from the concentration axis [2a]
Protocol: 2. Procedures [0241] a. A 96-well plate was coated with 1.5 μg/mL recombinant human TIGIT (His Tag) (Suzhou Junmeng) as the antigen at 100 μL/well and incubated at 37° C. for 1.5 h. [0242] b. The plate was washed 4 times with 300 μL/well 1×PBST, and 2% BSA was added at 200 μL/well. The plate was blocked at 37° C. for 1.5 h. [0243] c. The plate was washed 4 times with 300 μL/well 1×PBST, and serial dilutions of the bispecific antibodies JS-1,3,5,9 and a negative control: antibody (anti-KLH hIgG4) (initial concentration 1.0 μg/mL, 3-fold serially diluted to 12 concentration points, 100 μL/well) were added. The plate was incubated at 37° C. for 1 h. [0244] d. The plate was washed 4 times with 300 μL/well 1×PBST. [0245] e. 5000-fold diluted horseradish peroxidase (HRP)-conjugated mouse anti-human IgG4 Fc antibody (Southern Biotech, 9200-05) was added at 100 μL/well, and the plate was incubated at 37° C. for 1 h. […] The plate was washed 4 times with 300 μL/well 1×PBST. [0247] g. 0.1 mg/mL TMB was added at 100 μL/well, and after the plate was incubated at 37° C. for 15 min, a 2 M solution of hydrochloric acid was added at 100 μL/well to stop the reactions. [0248] h. The absorbance was measured at 450 nm/620 nm on a microplate reader, and data were analyzed using Graphpad Prism7.

human CD112R-mFc protein = target: T3, human CD112R-mFc protein (human, UniProt Q6DKI7 41-171, limits assumed); test: flow cytometry, blocking of 1 ug/mL CD112R-mFc binding to CHO hCD112 cells
T3 construct: also called human CD112R protein; not shown: mouse Fc (mFc)
T3 sequence (looked up): T2 sequence (looked up)
Protocol: CHO hCD112 cells (Chinese hamster ovary cells, human CD112 positive) were incubated with different concentrations of the bispecific antibodies JS-1, JS-3, JS-5 and JS-9 and 1 μg/mL human CD112R-mFc protein at 4° C. for 30 min, then washed twice and incubated with a fluorescence-labeled anti-mouse IgG secondary antibody (1:200) in a dark place at 4° C. for 30 min. Finally, the cells were collected using a flow cytometer (BD Canto II), and the fluorescent antibodies bound to the cell surface were detected. Raw data were analyzed using FlowJo to obtain MFI values, antibody dose-dependent binding curves (FIG. 4) were fitted using GraphPad, and IC50 was calculated. The positive controls were hu52 (a recombinant humanized anti-CD112R monoclonal antibody) and JS-Ref (Hengrui) (an anti-TIGIT/CD112R bispecific antibody of Hengrui, expressed and purified according to the sequence of the patent WO2021180205), and the negative control was an anti-KLH-hIgG1 antibody.

[4] = target: T1, recombinant human TIGIT (His Tag); test: ELISA, relative binding activity, sample kept at 40 C for 4 weeks
Protocol: as §1

[5] = target: T2, recombinant human HX1 hCD112R Fc; test: as above
Protocol: as §1

[6] = target: T4, human TIGIT on the surface of Jurkat-hTIGIT cells (human, UniProt Q495A1 22-244); test: flow cytometry, blocking of 1 ug/mL PVR-mFc binding to Jurkat-hTIGIT cells
T4 construct: whole, on cells; also called human TIGIT on the surface of Jurkat cells
T4 sequence (looked up): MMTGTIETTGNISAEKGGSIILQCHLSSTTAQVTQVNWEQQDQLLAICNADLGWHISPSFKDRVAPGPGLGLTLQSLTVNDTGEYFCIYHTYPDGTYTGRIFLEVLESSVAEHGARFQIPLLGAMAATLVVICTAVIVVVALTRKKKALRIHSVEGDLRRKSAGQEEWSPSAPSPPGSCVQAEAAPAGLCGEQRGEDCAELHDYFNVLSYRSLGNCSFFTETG
Protocol: Jurkat-hTIGIT cells (human T lymphocytes, human TIGIT positive) were incubated with different concentrations of the bispecific antibodies JS-1, JS-3, JS-5 and JS-9 and 1 μg/mL human PVR-mFc protein at 4° C. for 30 min, then washed and incubated with a fluorescence-labeled anti-mouse IgG secondary antibody (1:200) in a dark place at 4° C. for 30 min. Finally, the cells were collected using a flow cytometer (BD Canto II), and the fluorescent antibodies bound to the cell surface were detected. Raw data were analyzed using FlowJo to obtain MFI values, antibody dose-dependent binding curves (FIG. 4) were fitted using GraphPad, and IC50 was calculated. The positive controls were hu20 (a recombinant humanized anti-TIGIT monoclonal antibody) and JS-Ref (Hengrui) (an anti-TIGIT/CD112R bispecific antibody of Hengrui, expressed and purified according to the sequence of the patent WO2021180205), and the negative control was an anti-KLH-hIgG4 antibody.

Binder	TIGIT binding activity Elisa (%) [1]	CD112R binding activity Elisa (%) [2]	EC50 [3]	IC50 (human CD112R-mFc protein)	TIGIT binding activity Elisa (%) [4]	CD112R binding activity Elisa (%) [5]	IC50 [6]
B1	100%	101%	0.0858 µg/mL	0.915 nM	97%	86%	5.42 nM
B2	111%	102%	0.106 µg/mL	0.696 nM	84%	88%	6.78 nM
